From patent US20200239541A1 (XYPHOS BIOSCIENCES, published 2020)
Where a chain is given by its changes, count along the chain named.

B1: trastuzumab-MICwed MicAbody (bispecific antibody, human IgG1, kappa)
heavy: not shown
light: not shown
chain: EPHSLRYNLTVLSWDGSVQSGFLTEVHLDGQPFLRCDRQKCRAKPQGQWAEDVLGNKTWDRETRDLTGWGKDLRMTLAHIKDQKEGLHSLQEIRVCEIHEDNSTRSSQHFYYDGELFLSQNLETKEWTMPQSSRAQTLAMNVRNFLKEDAMETDTHYHAMHADCLQELRRYLKSGVVLRRTV
B2: trastuzumab-MIC25 MicAbody (bispecific antibody, human IgG1, kappa)
heavy: not shown
light: not shown
chain: B1 chain with K125L, H161R, Q166S
B3: rituximab-MicAbody with ULBP2 variant AA (bispecific antibody, human IgG1, kappa)
heavy: not shown
light: QIVLSQSPAILSASPGEKVTMTCRASSSVSYIHWFQQKPGSSPKPWIYATSNLASGVPVRFSGSGSGTSYSLTISRVEAEDAATYYCQQWTSNPPTFGGGTKLEIKTVAAPSVFIFPPSDEQLKSGTASVVCLLNNFYPREAKVQWKVDNALQSGNSQESVTEQDSKDSTYSLSSTLTLSKADYEKHKVYACEVTHQGLSSPVTKSFNRGECAPTSSSGGGGSEPHSLSYDITVIPKFRPGPRWCAVQGQVDEKTFLHYDCGNKTVTPVSPLGKKLNVTTAWKAQNPVLREVVDILTEQLWDIQLENYTPKEPLTLQARMSCEQKAEGHSSGSWQFSFDGQIFLLFDSEKRMWTTVHPGARKMKEKWENDKVVATMFWSWSMGDCIGWLEDFLMGMDSTLEPS
notes: also called ULBP2.AA
B4: rituximab-MicAbody with ULBP2 variant AB (bispecific antibody, human IgG1, kappa)
heavy: not shown
light: B3 light with M376L, F377M, S379Q
notes: also called ULBP2.AB
B5: rituximab-MicAbody with ULBP2 variant C (bispecific antibody, human IgG1, kappa)
heavy: not shown
light: B3 light with M376I, F377L, S379Q, W380T
notes: also called ULBP2.C

Columns and labels:
[1] = biological target: T1, Fc-NKG2D.wt (human); experiment: ELISA (called Kd in the text)
T1 construct: also called NKG2D.wt Y|Y; natural Fc-NKG2D
Protocol: (§1) The binding affinities of α1-α2 variants to the extracellular domains of natural (wild-type) NKG2D and non-natural eNKG2D proteins were analyzed using a plate-based ELISA method. Each of the SEC fractionated natural Fc-NKG2D and non-natural Fc-eNKG2D fusions were coated overnight at 4° C. onto separate wells of Nunc Maxisorp 96 well plates (Thermo Fisher Scientific, Waltham, Mass.) using a coating concentration of 1 μg/mL in phosphate-buffered saline (PBS). The plates were washed three times in PBS/0.05% Tween-20 (PBS-T) at 20-22° C., and blocked with 0.5% bovine serum albumin in PBS (PBS-B) for 2 hours at 20-22° C. MicAbodies were titrated against the plate-bound natural or non-natural Fc-NKG2D fusions for 60 minutes at 20-22° C. in PBS/0.5% bovine serum albumin (BSA)/0.05% Tween-20 (PBS-BT), washed 3 times with PBS-T at 20-22° C., and the bound bispecific proteins detected using an HRP-conjugated anti-human kappa in PBS-BT (Abcam, Cambridge Mass.) and developed with 1-Step™ Ultra TMB ELISA Substrate Solution (Thermo Fisher Scientific, Waltham, Mass.).

[2] = biological target: T2, Fc-eNKG2D6 (Y152L/Y199F) (human); experiment: ELISA, Fc-eNKG2D coated, MicAbody titrated from 300 nM
T2 construct: also called eNKG2D6 L|F
Protocol: as §1

[3] = biological target: T3, Fc-eNKG2D12 (Y152D/Y199D) (human); experiment: as above
T3 construct: also called eNKG2D12 D|D
Protocol: as §1

[4] = biological target: T4, Fc-eNKG2D13 (Y152E/Y199E) (human); experiment: as above
T4 construct: also called eNKG2D13 E|E
Protocol: as §1

[5] = biological target: T5, Fc-eNKG2D14 (Y152L) (human); experiment: ELISA, Fc-NKG2D coated, MicAbody titrated from 300 nM
T5 construct: also called eNKG2D14 L|Y
Protocol: as §1

[6] = biological target: T6, Fc-eNKG2D3 (Y152T) (human); experiment: as above
T6 construct: also called eNKG2D3 T|Y
Protocol: as §1

[7] = biological target: T1, Fc-NKG2D.wt; experiment: as above
Protocol: as §1

[8] = biological target: T7, Fc-eNKG2D2 (Y152S) (human); experiment: as above
T7 construct: also called eNKG2D2 S|Y; not shown: human IgG1 Fc (without Fab domains)
Protocol: as §1

[9] = biological target: T8, Fc-eNKG2D4 (Y152V) (human); experiment: as above
T8 construct: also called eNKG2D4 V|Y
Protocol: as §1

[10] = biological target: T5, Fc-eNKG2D14 (Y152L); experiment: BLI (Octet), Fc-eNKG2D captured on AHC tips, 20 nM MicAbody
Protocol: (§2) Additional biophysical analysis of eNKG2D variant binding to ligands was also performed with Bio-Layer Interferometry (BLI) using the FortéBio Octet system (all FortéBio LLC, Fremont, Calif.). For these experiments human NKG2D ligands MICA-Fc, MICB-Fc, ULBP1-Fc, ULBP2-Fc, ULBP3-Fc, and ULBP4-Fc were purchased from R&D Systems, Inc. (Minneapolis, Minn.). Ligands in the MicAbody format were captured on anti-human IgG Fc capture (AHC) biosensor tips. After a baselines were established, tips were exposed to a titration series of Fc-eNKG2D fusion proteins ranging from 300 nM to 0.41 nM and association/dissociation kinetics monitored with all steps performed in PBS-BT. Subsequently, Fc-eNKG2D fusion proteins were captured onto AHC tips and MicAbodies were titrated to characterize binding kinetics.
(§3) Binding analysis under the same conditions was then performed with Fc-eNKG2D fusion receptors as the capture agent, and the level of binding for each eNKG2D ranked as a percentage of the maximal binding response established by Fc-NKG2D.wt (Table 2).

[11] = biological target: T6, Fc-eNKG2D3 (Y152T); experiment: as above
Protocol: as §2, §3

[12] = biological target: T7, Fc-eNKG2D2 (Y152S); experiment: as above
Protocol: as §2, §3

[13] = biological target: T9, Fc-eNKG2D1 (Y199F) (human); experiment: as above
T9 construct: also called eNKG2D1 Y|F; not shown: human IgG1 Fc (without Fab domains)
Protocol: as §2, §3

[14] = biological target: T10, Fc-NKG2D.Y152A (human); experiment: as above
T10 construct: also called eNKG2D A|Y; Fc-NKG2D.YA
Protocol: as §2, §3

[15] = biological target: T8, Fc-eNKG2D4 (Y152V); experiment: as above
Protocol: as §2, §3

[16] = biological target: T11, Fc-eNKG2D15 (Y152F/Y199F) (human); experiment: ELISA, Fc-NKG2D coated, MicAbody titrated from 300 nM; ELISA, Fc-eNKG2D15 as capture agent, MicAbody titrated from 300 nM
T11 construct: also called eNKG2D15 F|F
Protocol: as §1

[17] = biological target: T11, Fc-eNKG2D15 (Y152F/Y199F); experiment: ELISA, Fc-NKG2D coated, MicAbody titrated from 300 nM
Protocol: as §1

[18] = biological target: T2, Fc-eNKG2D6 (Y152L/Y199F); experiment: as above
Protocol: as §1

[19] = biological target: T12, Fc-eNKG2D8 (Y152T/Y199F) (human); experiment: BLI (Octet), Fc-eNKG2D captured on AHC tips, 20 nM MicAbody
T12 construct: also called eNKG2D8 T|F
Protocol: as §2, §3

[20] = biological target: T13, Fc-eNKG2D9 (Y152V/Y199F) (human); experiment: as above
T13 construct: also called eNKG2D9 V|F
Protocol: as §2, §3

[21] = biological target: T14, Fc-eNKG2D7 (Y152S/Y199F) (human); experiment: as above
T14 construct: also called eNKG2D7 S|F
Protocol: as §2, §3

[22] = biological target: T15, Fc-eNKG2D5 (Y152A/Y199F) (human); experiment: as above
T15 construct: also called eNKG2D5 A|F; Fc-NKG2D.AF
Protocol: as §2, §3

[23] = biological target: T1, Fc-NKG2D.wt; experiment: ELISA, Fc-NKG2D coated, MicAbody titrated; quantitative ELISA of Table 12, fitted EC50 on Fc-NKG2D.wt (20092-fold weaker than on AF)
[24] = biological target: T1, Fc-NKG2D.wt; experiment: ELISA, Fc-NKG2D coated, MicAbody titrated; quantitative ELISA of Table 12, fitted EC50 on Fc-NKG2D.wt (10802-fold weaker than on AF)
[25] = biological target: T1, Fc-NKG2D.wt; experiment: ELISA, Fc-NKG2D coated, MicAbody titrated; quantitative ELISA of Table 12, fitted EC50 on Fc-NKG2D.wt (4414-fold weaker than on AF)

T6 sequence (chain, as listed by the source Y152T Y152T limits assumed): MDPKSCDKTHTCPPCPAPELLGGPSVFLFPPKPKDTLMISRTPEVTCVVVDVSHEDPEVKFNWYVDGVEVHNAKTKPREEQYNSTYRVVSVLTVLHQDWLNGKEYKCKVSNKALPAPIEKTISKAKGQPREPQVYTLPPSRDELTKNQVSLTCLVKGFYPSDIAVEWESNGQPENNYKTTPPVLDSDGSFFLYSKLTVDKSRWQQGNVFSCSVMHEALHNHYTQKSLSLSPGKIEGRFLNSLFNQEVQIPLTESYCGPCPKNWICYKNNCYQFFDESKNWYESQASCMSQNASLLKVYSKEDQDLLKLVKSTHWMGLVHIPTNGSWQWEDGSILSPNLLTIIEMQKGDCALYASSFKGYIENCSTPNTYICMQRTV
T5 sequence (chain, as listed by the source Y152L Y152L limits assumed): as the sequence (chain, as listed by the source Y152T Y152T limits assumed) above, with T312L counted along it
T7 sequence (chain, as listed by the source Y152S Y152S): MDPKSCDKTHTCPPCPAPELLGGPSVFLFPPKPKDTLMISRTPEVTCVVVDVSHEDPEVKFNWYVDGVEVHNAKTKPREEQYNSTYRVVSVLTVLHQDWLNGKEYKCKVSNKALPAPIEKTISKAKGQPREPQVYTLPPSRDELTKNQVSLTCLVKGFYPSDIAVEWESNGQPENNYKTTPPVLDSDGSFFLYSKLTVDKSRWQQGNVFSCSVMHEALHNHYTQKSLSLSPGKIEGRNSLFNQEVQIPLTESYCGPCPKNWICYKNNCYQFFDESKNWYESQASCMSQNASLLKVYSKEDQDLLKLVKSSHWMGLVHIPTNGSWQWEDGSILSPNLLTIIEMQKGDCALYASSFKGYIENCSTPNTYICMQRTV
T8 sequence (chain, as listed by the source Y152V Y152V limits assumed): as the sequence (chain, as listed by the source Y152T Y152T limits assumed) above, with T312V counted along it
T1 sequence (chain, as listed by the source limits assumed): as the sequence (chain, as listed by the source Y152T Y152T limits assumed) above, with T312Y counted along it
T10 sequence (chain, as listed by the source Y152A Y152A limits assumed): as the sequence (chain, as listed by the source Y152T Y152T limits assumed) above, with T312A counted along it
T2 sequence (chain, as listed by the source Y152L Y199F Y152L Y199F limits assumed): as the sequence (chain, as listed by the source Y152T Y152T limits assumed) above, with T312L, Y359F counted along it
T9 sequence (chain, as listed by the source Y199F Y199F): as the sequence (chain, as listed by the source Y152S Y152S) above, with S310Y, Y357F counted along it
T3 sequence (chain, as listed by the source Y152D Y199D Y152D Y199D limits assumed): as the sequence (chain, as listed by the source Y152T Y152T limits assumed) above, with T312D, Y359D counted along it
T4 sequence (chain, as listed by the source Y152E Y199E Y152E Y199E limits assumed): as the sequence (chain, as listed by the source Y152T Y152T limits assumed) above, with T312E, Y359E counted along it
T11 sequence (chain, as listed by the source Y152F Y199F Y152F Y199F limits assumed): as the sequence (chain, as listed by the source Y152T Y152T limits assumed) above, with T312F, Y359F counted along it
T15 sequence (chain, as listed by the source Y152A Y199F Y152A Y199F limits assumed): as the sequence (chain, as listed by the source Y152T Y152T limits assumed) above, with T312A, Y359F counted along it
T13 sequence (chain, as listed by the source Y152V Y199F Y152V Y199F limits assumed): as the sequence (chain, as listed by the source Y152T Y152T limits assumed) above, with T312V, Y359F counted along it
T12 sequence (chain, as listed by the source Y152T Y199F Y152T Y199F limits assumed): as the sequence (chain, as listed by the source Y152T Y152T limits assumed) above, with Y359F counted along it
T14 sequence (chain, as listed by the source Y152S Y199F Y152S Y199F limits assumed): as the sequence (chain, as listed by the source Y152T Y152T limits assumed) above, with T312S, Y359F counted along it

Binder	EC50 [1] [nM]	binding result [3]	binding result [4]	EC50 [5] [nM]	EC50 [6] [nM]	EC50 [7] [nM]	EC50 [8] [nM]	EC50 [9] [nM]	percent of the maximal binding response of Fc-NKG2D.wt [10] [%]	percent of the maximal binding response of Fc-NKG2D.wt [11] [%]	percent of the maximal binding response of Fc-NKG2D.wt [12] [%]	percent of the maximal binding response of Fc-NKG2D.wt [13] [%]	percent of the maximal binding response of Fc-NKG2D.wt [14] [%]	percent of the maximal binding response of Fc-NKG2D.wt [15] [%]	further results
B1	0.007	no binding (tested: 300 nM)	no binding (tested: 300 nM)	9.39	4.33	0.0067	4.16	4.84	50	50	50	100	50	50	binding result [2]: no binding (tested: 300 nM); EC50 [16]: 31.3 nM
B2	~0.005	no binding (tested: 300 nM)	no binding (tested: 300 nM)	0.01	0.0056	~0.0039	0.0056	~0.0043	100	100	100	100	100	100	EC50 [17]: 0.046 nM; EC50 [18]: 0.37 nM; percent of the maximal binding response of Fc-NKG2D.wt [19]: 50%; percent of the maximal binding response of Fc-NKG2D.wt [20]: 100%; percent of the maximal binding response of Fc-NKG2D.wt [21]: 50%; percent of the maximal binding response of Fc-NKG2D.wt [22]: 50%
B3															EC50 [23]: 655 nM
B4															EC50 [24]: 389 nM
B5															EC50 [25]: 130 nM
